The supplement of paper PMC12764529
± gives the half width of the 95% confidence interval.

What was measured:
[1] = folding stability dG unfold (combined trypsin and chymotrypsin); higher = more stable
How it was run: (§1)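 Unfolding free energy was derived, per protease or combined, against a sequence-predicted unfolded-state K50 and a shared folded-state K50, starting from K50 inferred by Bayesian fitting of sequencing counts. Digestion with trypsin and chymotrypsin was carried out on designed mini-proteins under 80 residues without cysteine in a PA-tagged cDNA display construct. Only designs with AlphaFold2 dimer inter-PAE above 15 were kept.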

[2] = folding stability dG unfold from chymotrypsin proteolysis; higher = more stable
How it was run: as §1

[3] = folding stability dG unfold from trypsin proteolysis; higher = more stable
How it was run: as §1

Sequence | folding stability dG unfold [1] | folding stability dG unfold [2] | folding stability dG unfold [3]
SAGGMTLTVDEIKELLKKGYSLEEIKEALKKAGFEIVEIKKIEKKDGKIYIEIEFKKNKKIIKIEIPSAGGS [r8_179_TrROS_Hall] | 17.6 ± 1.46 kJ/mol | 18.2 ± 0.753 kJ/mol | 14.1 ± 1 kJ/mol
SAGGSAGGSIFIHWTYEMEHERDPDDPDEPRMKMKIKDWVISIPEDDPDKLKELADKLGIPIISAGGSAGGS [r12_249_TrROS] | 5.19 ± 0.46 kJ/mol | 7.09 ± 0.285 kJ/mol | 2.41 ± 0.364 kJ/mol
SAGGSAEPPEVTVEVLSVEPTPDGYLVVERVVTTPDGVLVYRTVFRPPDGKPVGTDWALFPNPDALSAGGSA [r15_716_TrMRF] | 12.3 ± 0.502 kJ/mol | 14.8 ± 0.172 kJ/mol | 9.09 ± 0.962 kJ/mol
SAGGSAMFVVVEVESPEELRELVEEEDPSVFLLPTEDGEERLVVVDPENPENIRVIPLERPELLAPSAGGSA [r15_11_TrMRF] | 1.13 ± 0.285 kJ/mol | -1.19 ± 1.13 kJ/mol | 2.24 ± 0.176 kJ/mol
SAGGLSLEELADELAQENGWEITEAEPIEFTPNTIRFEVTVRMPDGKRRTIEIEIEIPPPKPPDQPKSAGGS [r8_309_TrROS] | 5.83 ± 0.544 kJ/mol | 6.81 ± 0.243 kJ/mol | 4.8 ± 0.28 kJ/mol
SAGGYVTSPMSPEIEAKAKEAGKTIDEAKELVIPVNDGGKFRTVKVTFYPETGTVAFYYEDTGEWSNLLSAG [r5_545_JUSTAS] | 4 ± 0.92 kJ/mol | 4.41 ± 0.795 kJ/mol | 2.09 ± 0.502 kJ/mol
SAGGSAGGSAGSNKVVTFVPRDPATGAPLGERPIPINSSSGSEIESIKKELPPEVVEIVESAGGSAGGSAGG [r17_339_JUSTAS] | 4.22 ± 0.276 kJ/mol | 4.8 ± 0.0837 kJ/mol | 2.53 ± 0.184 kJ/mol
SAGGMTPEEARKLAEELAKKLEEEGKEVEVKVEVNKDGKVVKIEIKPEGEKVTITLPDGEKVLELELPSAGG [r13_693_TrROS_Hall] | 4.33 ± 1.05 kJ/mol | 4.2 ± 0.372 kJ/mol | 4.58 ± 0.201 kJ/mol
SAGGSAGGSAGGKIDRIQLHYNPGGNVYFRIYGPNGKPRYFMMPAEDLEDFPNAPIEIYPSAGGSAGGSAGG [r7_238_TrROS] | 3.62 ± 0.402 kJ/mol | 3.55 ± 0.46 kJ/mol | 2.71 ± 0.167 kJ/mol
SAGGSSSSTSTRIDPTTGEWVTSTSSFPVPPAPPYIEVRLDVPPEEAEALREKLLAEHPDLPVRLEASAGGS [r8_437_JUSTAS] | 2.66 ± 0.301 kJ/mol | 3.1 ± 0.121 kJ/mol | 1.41 ± 0.0962 kJ/mol
SAGGSAGGSAGMETTDSVITYPDGSVVTVTTLPDGTTRVTTFYPESGLTEEEIVPAAELGSAGGSAGGSAGG [r11_1015_JUSTAS] | 9.15 ± 0.36 kJ/mol | 10.7 ± 0.418 kJ/mol | 7.51 ± 0.36 kJ/mol
SATKEIEIEVNGRKLRIRIERKEDGSIKITIELPGMSAEEVKEALRKLLPPDAKITVDEITVTEYREEPSAG [r14_370_TrROS_Hall] | 11.9 ± 1.26 kJ/mol | 10.2 ± 0.711 kJ/mol | 13.1 ± 0.711 kJ/mol
SAGGSAGGSAGGFIPEDGHPDETVQLTTSLTLTTSYTLPNGETVTETHTVPVLFTYKVPSAGGSAGGSAGGS [r10_1135_TrMRF] | 3.33 ± 0.226 kJ/mol | 4.27 ± 0.297 kJ/mol | 1.81 ± 0.0837 kJ/mol
SAGGKVTVENDTLTIPFPDGFTVEITLPPNDKTAVITLHTPPNNPLALAAAKAIADSLPDYKVEVRDESAGG [r13_34_TrMRF] | 2.94 ± 0.293 kJ/mol | 2.72 ± 0.251 kJ/mol | 2.77 ± 0.146 kJ/mol
SAGGSDLKVQVNKDGNTIRIQLPDGKPIFEIPFYRYDPDDGKPLEPWTIRMRLDPDGNIKIEEITPSAGGSA [r2_362_TrROS] | 7.01 ± 0.628 kJ/mol | 6.07 ± 0.586 kJ/mol | 7.4 ± 0.184 kJ/mol
SAGGKTLTIEVNGKKYKITVEKNENGELTLTIYEYDKKTKKWKKIKTIKLKNMSLEEVLKLLKKLPPSAGGS [r16_378_TrROS_Hall] | 19.2 ± 1.26 kJ/mol | 20.5 ± 0.795 kJ/mol | 17.1 ± 0.837 kJ/mol
SAGMSADIPVDPVTGTLTITVTDAFNPDKSTTTTVPLSELEAELGRPLTLEEVAARVEAAGVATVTVGPSAG [r14_809_JUSTAS] | 3.43 ± 0.234 kJ/mol | -0.119 ± 0.356 kJ/mol | 6.09 ± 0.213 kJ/mol
SAGGTLTLLVEVDGLLVRVTAEVRLVYDPETDELTLEVRVRVEVRPLPAPPPPLVVVRDADGRLRLLSAGGS [r8_46_TrROS_Hall] | 9.29 ± 0.335 kJ/mol | 11.3 ± 0.176 kJ/mol | 4.32 ± 0.397 kJ/mol
SAGPYYVRITVSIYYPGNGAPHQHTIPIKGKTLDDIKDEIRDEIRDHGMKMDPGDEVEIQITDIEVYPGSAG [r5_230_TrROS] | 5.36 ± 0.314 kJ/mol | 6.5 ± 0.251 kJ/mol | 3.79 ± 0.0795 kJ/mol
SAGGGSLEKIREAGKKGYLVRIELETGERRVIPIEDLIRDPRFGPDVPLAELRVRRIELLPPDDGLPLSAGG [r13_587_TrMRF] | 4.72 ± 0.259 kJ/mol | 3.72 ± 0.289 kJ/mol | 5.32 ± 0.151 kJ/mol
SAGGSAGGSAGGSPNYRLEIRVDIKVSYRYDLFTGEPIEPEVEIEVEIRLIPEGAIVDESAGGSAGGSAGGS [r4_175_TrMRF] | 19.1 ± 1.17 kJ/mol | 19 ± 1.17 kJ/mol | 16.2 ± 0.586 kJ/mol

Sequence | folding stability dG unfold [1] | folding stability dG unfold [2] | folding stability dG unfold [3]
SAGEEVYLITVRIIDPETNEVKEITKLIKNKTEDEILEELRKLLEELGIELPEGAKVEITITKIKPPPESAG [r5_230_TrROS_Hall] | 17.8 ± 3.43 kJ/mol | 17 ± 1.84 kJ/mol | 14.8 ± 2.18 kJ/mol
SAGDPDRPVVVVIHYVDPETGEPRVEVFPADRIERIEVSPDGVLRIHLPAYGLEIDFPLDVVDHVDIASAGG [r19_416_TrMRF] | 8.85 ± 0.113 kJ/mol | 9.07 ± 0.184 kJ/mol | 8.32 ± 0.268 kJ/mol
SAGGSAGGSAGDDNKKKPKPKIEIQPVRMTMPFPENGLRIEIDIWVIKDGNIIFMIEWYPSAGGSAGGSAGG [r11_463_TrROS] | 13.8 ± 0.46 kJ/mol | 15.6 ± 0.711 kJ/mol | 12.2 ± 0.502 kJ/mol
SAGGGMQAVSPVKTETKTSPDGTTTTTTTTRYPDGTVVVPVTETSPTGGAKKVATTTVSLGPPSPALASAGG [r13_494_JUSTAS] | 2.51 ± 0.389 kJ/mol | 4.46 ± 0.138 kJ/mol | -1.32 ± 0.356 kJ/mol
SAGGSAGGMKVIEIDLPDGSKLKIVIYKDGTLPAYLPEGNKVIVLEIDKNGKIKSVKVFDAKDISAGGSAGG [r6_81_TrMRF] | 13.4 ± 1.05 kJ/mol | 14.7 ± 0.301 kJ/mol | 12 ± 0.669 kJ/mol
SAGGSAGGSAGVRIDKDGWTIKWYNPDGEKRTFTVDSPEEAKDFLEENFPPGWRVEIEPPSAGGSAGGSAGG [r11_983_TrROS] | 5.59 ± 0.544 kJ/mol | 5.76 ± 0.234 kJ/mol | 4.63 ± 0.192 kJ/mol
SAGGSAGGSDNVKIEWEYNPENGVYTHEVYYDDGRPVTIIINPAEGPIWVFDPPDGKPIAPIPSAGGSAGGS [r12_657_TrROS] | 4.49 ± 0.305 kJ/mol | 3.49 ± 0.0962 kJ/mol | 5.68 ± 0.209 kJ/mol
SDEDLEILRVEATPDTIRILFKIPSNPDLYIEVPITVFEDETSRRILINARILRPETGEVIAEIPFEIPLSA [r9_18_TrMRF] | 15.8 ± 1 kJ/mol | 17.7 ± 0.544 kJ/mol | 14.8 ± 0.669 kJ/mol
SAGGSAGGSKNVKTVTIPFNNMSPSKFIEQIKNHPVDAIEIEMPDPWYRRFLNWLKDEGIKVISAGGSAGGS [r12_610_TrROS] | 6.24 ± 0.502 kJ/mol | 6.23 ± 0.753 kJ/mol | 5.32 ± 0.222 kJ/mol
SAGGLLEELGLEIEEVEVEVEEVEVGQTVRIRVKVKGEDGEEFEIELEIRLPPPPVEVEEEVEEEEESAGGS [r8_216_TrROS_Hall] | 7.61 ± 0.586 kJ/mol | 7.66 ± 0.377 kJ/mol | 8.01 ± 0.837 kJ/mol
SDALKNIPFEIVEIDPPPPDRPIPAGGTVRITVYNPLTPGQPFTFDVRFIPGEGTLIAEIGGLPVEIPIGSA [r9_243_TrMRF] | 12.3 ± 0.502 kJ/mol | 14.5 ± 0.343 kJ/mol | 10.6 ± 0.331 kJ/mol
SAGGSAGGSAVAEEFKKKFPDKTVTVEAFTFERTVTHPDGGSSTERVTVLNVTVSSSDDPGSAGGSAGGSAG [r3_358_TrMRF] | 8.19 ± 0.46 kJ/mol | 8.99 ± 0.418 kJ/mol | 5.64 ± 0.297 kJ/mol
SAGGSAMKIEITVEKNENGELTITVKIYDKNGKLVKEIKLKVKTEEEAKKALKELAEKLGIEVEPESAGGSA [r15_242_TrROS_Hall] | 14 ± 1.84 kJ/mol | 15.4 ± 0.669 kJ/mol | 8.48 ± 2.01 kJ/mol
SAGGSAGGSMKRLPDGNLVVKLNNGSTWSVITIPVSPDESEEEIKQRLKELFGPNYPEYDISESAGGSAGGS [r12_300_JUSTAS] | 4.36 ± 0.243 kJ/mol | 3.84 ± 0.377 kJ/mol | 4.5 ± 0.046 kJ/mol
SAGMIRIIVDGKEVEEIEMSEEELRALLADPNIKKARVFVNGEEKEVEVKEGEIKEKLPPGAVIRIEKSAGG [r19_152_TrROS_Hall] | 7.5 ± 0.502 kJ/mol | 8.53 ± 0.13 kJ/mol | 6.06 ± 0.255 kJ/mol
SAGMEKVKLTFKTEDGSEVEIEIVKNEDGSYFVKVKVDKENQEIYVFNADGELIEKIKVKSLEDALKALSAG [r5_757_TrROS_Hall] | 11.4 ± 0.502 kJ/mol | 13.4 ± 0.218 kJ/mol | 7.06 ± 0.264 kJ/mol
SGSSLLSETTEFVELPDDTFATVSTSTYYIPGSGEIVTKTTVTIYPPTGPPVTTTYTSTTTPEGVLVTESSA [r9_856_JUSTAS] | 13.8 ± 0.837 kJ/mol | 15 ± 0.628 kJ/mol | 9.94 ± 0.544 kJ/mol
SAGEPLGPEKAKELAEELVERVAREIAERLGLAPEEVEVVSVELTPDGRLVLTLRVPEREFTFVFPVEGSAG [r5_565_TrMRF] | 19.3 ± 0.226 kJ/mol | 20.4 ± 0.226 kJ/mol | 14 ± 0.326 kJ/mol
SAGGSAGGSLMIPIPPGKPINIKFEIKNDDGHPMRITETYPVKNGYYVIRVENPNGNEQIIPFSAGGSAGGS [r12_31_TrROS] | -0.773 ± 0.586 kJ/mol | -1.13 ± 0.837 kJ/mol | -1.03 ± 0.628 kJ/mol
SAGGPVFEVTPEVDPDTDLVTYTVRVPADVDFAAVAKALETEFADGSRAEVKPLPDGTVVVVVRLPASAGGS [r8_255_TrMRF] | 3.94 ± 0.247 kJ/mol | 1.28 ± 0.502 kJ/mol | 5.23 ± 0.0962 kJ/mol
SAGGSAGGSAGKIEAFPGKNTVLLKISIPRRDPNSDSIYTLHAVIPATPEQAKKFLELGISAGGSAGGSAGG [r11_389_TrMRF] | 4.06 ± 0.418 kJ/mol | 3.76 ± 0.586 kJ/mol | 3.72 ± 0.172 kJ/mol
